In patent publication US20060142189A1:

What was measured:
Test in all cases: cell-based or functional assay
[1] = target: myc-L1-CAM-YF (rat (variant of rat L1-CAM)) (UniProt Q05695)
[2] = target: myc-L1-CAM (myc-tagged rat L1-CAM variant expressed from pMyc-L1-CAM) (rat (variant of rat L1-CAM)) (UniProt Q05695)
[3] = target: myc-L1-CAM-YH (rat (variant of rat L1-CAM)) (UniProt Q05695)
[4] = target: cell-surface L1-CAM of mouse cerebellar granular neurons (mouse) (UniProt P11627)
Chain of cell-surface L1-CAM of mouse cerebellar granular neurons (mouse) (P11627 20-1260): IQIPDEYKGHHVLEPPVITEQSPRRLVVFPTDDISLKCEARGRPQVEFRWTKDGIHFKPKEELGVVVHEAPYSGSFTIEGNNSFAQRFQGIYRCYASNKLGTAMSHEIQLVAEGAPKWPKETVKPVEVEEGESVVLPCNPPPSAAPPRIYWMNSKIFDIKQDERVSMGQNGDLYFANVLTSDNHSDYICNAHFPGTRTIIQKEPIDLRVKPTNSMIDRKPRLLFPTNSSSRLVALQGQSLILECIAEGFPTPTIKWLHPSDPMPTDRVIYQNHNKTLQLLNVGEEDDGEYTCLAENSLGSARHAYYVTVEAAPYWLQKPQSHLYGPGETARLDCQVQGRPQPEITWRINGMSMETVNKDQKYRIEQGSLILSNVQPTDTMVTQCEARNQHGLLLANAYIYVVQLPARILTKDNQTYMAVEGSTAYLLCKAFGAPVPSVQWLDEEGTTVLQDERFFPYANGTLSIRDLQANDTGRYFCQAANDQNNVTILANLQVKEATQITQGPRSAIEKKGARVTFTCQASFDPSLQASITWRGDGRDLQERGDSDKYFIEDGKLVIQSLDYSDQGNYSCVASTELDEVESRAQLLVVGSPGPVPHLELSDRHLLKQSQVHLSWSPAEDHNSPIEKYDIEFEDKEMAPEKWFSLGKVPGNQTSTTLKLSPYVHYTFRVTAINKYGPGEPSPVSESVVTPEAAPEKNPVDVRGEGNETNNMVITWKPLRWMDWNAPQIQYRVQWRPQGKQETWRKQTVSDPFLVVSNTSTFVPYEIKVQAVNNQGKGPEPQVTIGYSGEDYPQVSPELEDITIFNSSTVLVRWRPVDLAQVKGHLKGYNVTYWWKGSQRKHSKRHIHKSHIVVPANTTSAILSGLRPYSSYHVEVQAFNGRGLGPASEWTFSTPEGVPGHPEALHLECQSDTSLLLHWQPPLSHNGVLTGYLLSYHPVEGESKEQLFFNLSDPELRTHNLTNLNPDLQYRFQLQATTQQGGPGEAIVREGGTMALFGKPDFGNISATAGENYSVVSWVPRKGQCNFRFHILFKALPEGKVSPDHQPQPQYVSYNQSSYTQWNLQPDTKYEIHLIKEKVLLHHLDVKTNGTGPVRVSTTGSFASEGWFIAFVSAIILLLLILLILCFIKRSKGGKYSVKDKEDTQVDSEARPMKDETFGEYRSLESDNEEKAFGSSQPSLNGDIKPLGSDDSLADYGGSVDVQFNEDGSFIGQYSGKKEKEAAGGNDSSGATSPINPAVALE

Chain of myc-L1-CAM (myc-tagged rat L1-CAM variant expressed from pMyc-L1-CAM) (rat (variant of rat L1-CAM)) (Q05695 other isoform, or with tags, fused parts or gaps mutant limits assumed): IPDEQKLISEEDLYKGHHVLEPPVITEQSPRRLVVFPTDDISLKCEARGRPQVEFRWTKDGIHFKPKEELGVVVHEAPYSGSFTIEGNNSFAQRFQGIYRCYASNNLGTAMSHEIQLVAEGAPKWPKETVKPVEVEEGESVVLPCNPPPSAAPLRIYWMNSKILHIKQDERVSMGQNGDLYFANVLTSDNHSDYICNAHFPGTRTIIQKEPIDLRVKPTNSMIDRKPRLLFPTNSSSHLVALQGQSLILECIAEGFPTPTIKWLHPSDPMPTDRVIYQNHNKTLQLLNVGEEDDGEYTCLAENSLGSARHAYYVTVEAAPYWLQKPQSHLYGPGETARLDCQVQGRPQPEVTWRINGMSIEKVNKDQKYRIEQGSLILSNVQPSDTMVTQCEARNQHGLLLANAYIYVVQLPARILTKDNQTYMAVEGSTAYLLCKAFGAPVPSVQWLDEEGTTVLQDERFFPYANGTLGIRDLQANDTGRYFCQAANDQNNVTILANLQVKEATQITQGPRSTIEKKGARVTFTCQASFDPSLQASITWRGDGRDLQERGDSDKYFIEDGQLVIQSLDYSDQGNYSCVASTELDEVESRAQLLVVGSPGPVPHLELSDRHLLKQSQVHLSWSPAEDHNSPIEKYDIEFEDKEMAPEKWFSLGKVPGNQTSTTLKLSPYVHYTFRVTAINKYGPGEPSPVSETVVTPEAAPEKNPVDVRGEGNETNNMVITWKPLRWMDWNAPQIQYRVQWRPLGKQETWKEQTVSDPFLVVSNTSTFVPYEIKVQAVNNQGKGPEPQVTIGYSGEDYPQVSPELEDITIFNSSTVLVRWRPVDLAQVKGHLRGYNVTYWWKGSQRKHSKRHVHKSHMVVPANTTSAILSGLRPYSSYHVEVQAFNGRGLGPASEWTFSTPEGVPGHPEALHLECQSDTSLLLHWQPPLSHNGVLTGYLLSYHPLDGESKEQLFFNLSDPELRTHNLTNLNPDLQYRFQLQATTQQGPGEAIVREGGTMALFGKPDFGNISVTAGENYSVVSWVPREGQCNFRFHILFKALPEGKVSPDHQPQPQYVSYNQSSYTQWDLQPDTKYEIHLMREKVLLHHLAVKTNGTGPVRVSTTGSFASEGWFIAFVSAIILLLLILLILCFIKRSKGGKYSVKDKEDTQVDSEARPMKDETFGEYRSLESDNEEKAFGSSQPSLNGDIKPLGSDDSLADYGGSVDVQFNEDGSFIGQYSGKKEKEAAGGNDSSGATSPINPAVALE
Chain of myc-L1-CAM-YF (rat (variant of rat L1-CAM)) (Q05695 other isoform, or with tags, fused parts or gaps mutant): as the sequence (Q05695 other isoform, or with tags, fused parts or gaps mutant limits assumed) above
Chain of myc-L1-CAM-YH (rat (variant of rat L1-CAM)) (Q05695 other isoform, or with tags, fused parts or gaps mutant): as the sequence (Q05695 other isoform, or with tags, fused parts or gaps mutant limits assumed) above

Substance | % of trials with retrograde movement of L1-CAM-bound beads [1] [%] | % of trials with stationary behavior of L1-CAM-bound beads [1] [%] | % of trials with retrograde movement of L1-CAM-bound beads (wild-type, untreated ND-7 cells) [2] [%] | % of trials with retrograde transport of 9E10-coated beads (wild-type L1-CAM) [2] [%] | % of trials with retrograde transport of L1-CAM-bound beads after NGF treatment (100 ng/mL, 1 hour) [2] [%] | % of trials with stationary behavior of L1-CAM-bound beads (wild-type, untreated ND-7 cells) [2] [%] | % of trials with stationary behavior of L1-CAM-bound beads after NGF treatment (100 ng/mL, 1 hour) [2] [%] | % of trials with retrograde movement of L1-CAM-bound beads [3] [%] | % of trials with stationary behavior of L1-CAM-bound beads [3] [%] | neurite extension of mouse cerebellar granular neurons on Ng-CAM after 24 h, with AP-YF peptide (30 µg/ml) [4] [µm] | neurite extension of mouse cerebellar granular neurons on Ng-CAM after 24 h, with control AP-Scramble peptide [4] [µm] | neurite extension on Ng-CAM with AP-YF above the level with control peptide [4] [%]
ankyrin B (endogenous in ND-7 cells) | 37.5 | 62.5 | 61.9 | 68.9 | 100 | 28.6 | 18.2 | 92.9 | 0 |  |  | 
chick Ng-CAM (chick homolog of L1-CAM) (from UniProt Q03696 21-1266) (receptor) |  |  |  |  |  |  |  |  |  | 32 | 21 | 55
